Substitutions are numbered along the chain they refer to.
B1: Fc fusion protein of anti-IL-5 single-domain antibody 4G8 (Fc fusion, not shown: a dimerising Fc or GST)
chain (part 1 of 2): QVQLVESGGGSVQAGGSLRLSCAASGITSSTSCMGWFRQSPGKEREGSLATIYDGAISYADSVKGRFTISVDNAKNILYLQMNNLKPEDTAMYYCAAAKYCMFWSDPSYWGQGTQVTVSS
chain (part 2 of 2): HHHHHH
B2: Fc fusion protein of anti-IL-5 single-domain antibody 2F7 (Fc fusion, not shown: a dimerising Fc or GST)
chain (part 1 of 2): B1 chain (part 1 of 2) with S29A, A56S, I57T, E88A, D106H
chain (part 2 of 2): HHHHHH
B3: humanized Fc-fused single-domain antibody 1B3-V5 (Fc fusion, not shown: a dimerising Fc or GST)
chain (part 1 of 2): B1 chain (part 1 of 2) with S29A, A56S, I57T, V71R, A74S, K86R, P87A, M92V, K99R, D106H
chain (part 2 of 2): HHHHHH
B4: Fc fusion protein of anti-IL-5 single-domain antibody 4H2 (Fc fusion, not shown: a dimerising Fc or GST)
chain (part 1 of 2): B1 chain (part 1 of 2) with G8E, A24V, S32A, A56S
chain (part 2 of 2): HHHHHH
B5: Fc fusion protein of anti-IL-5 single-domain antibody 2G6 (Fc fusion, not shown: a dimerising Fc or GST)
chain (part 1 of 2): B1 chain (part 1 of 2) with A56N
chain (part 2 of 2): HHHHHH
B6: Fc fusion protein of anti-IL-5 single-domain antibody 1B8 (Fc fusion, not shown: a dimerising Fc or GST)
chain (part 1 of 2): B1 chain (part 1 of 2) with S29A, A56S, I57T, R66Q, D106H
chain (part 2 of 2): HHHHHH
B7: humanized Fc-fused single-domain antibody 1B3-V4 (Fc fusion, not shown: a dimerising Fc or GST)
chain (part 1 of 2): B1 chain (part 1 of 2) with S29A, G55A, A56S, I57T, V71R, K86R, P87A, M92V, K99R, D106H
chain (part 2 of 2): HHHHHH
B8: humanized Fc-fused single-domain antibody 1B3-V3 (Fc fusion, not shown: a dimerising Fc or GST)
chain (part 1 of 2): B1 chain (part 1 of 2) with S29A, G55A, A56S, I57T, K99R, D106H
chain (part 2 of 2): HHHHHH
B9: Fc fusion protein of anti-IL-5 single-domain antibody 1F4 (Fc fusion, not shown: a dimerising Fc or GST)
chain (part 1 of 2): QVQLVESGGGSAQAGGSLRLSCAASGNTLDLMAWFRQAPGKEREGVAGIYSSGTTYYADSVKGRFTVSRDNAKNTVYLQMNSLKPEDAAMYYCAAKVSWYGRWYQSETYEYWGQGTQVTVSS
chain (part 2 of 2): HHHHHH
B10: Fc fusion protein of anti-IL-5 single-domain antibody 4B12 (Fc fusion, not shown: a dimerising Fc or GST)
chain (part 1 of 2): QVQLVESGGGSVQPGGSLRLSCAASGNTFSFSTYCMGWFRQSPGKEREGSLATIYDGSTAYAGSVKGRFTVSVDNAKNILYLQMNNLKPEDTAMYYCASAKYCMFWSDPSYWGQGTQVTVSS
chain (part 2 of 2): HHHHHH
B11: Fc fusion protein of anti-IL-5 single-domain antibody 4D5 (Fc fusion, not shown: a dimerising Fc or GST)
chain (part 1 of 2): B10 chain (part 1 of 2) with P14A, F31T, V71I, S99A
chain (part 2 of 2): HHHHHH
B12: Tab2 (control antibody 2), reslizumab (antibody, INN chains, looked up, V domains shown)
VH: EVQLVESGGGLVQPGGSLRLSCAVSGLSLTSNSVNWIRQAPGKGLEWVGLIWSNGDTDYNSAIKSRFTISRDTSKSTVYLQMNSLRAEDTAVYYCAREYYGYFDYWGQGTLVTVSS
VL: DIQMTQSPSSLSASVGDRVTITCLASEGISSYLAWYQQKPGKAPKLLIYGANSLQTGVPSRFSGSGSATDYTLTISSLQPEDFATYYCQQSYKFPNTFGQGTKVEVK
B13: humanized Fc-fused single-domain antibody 1B3-V1 (Fc fusion, not shown: a dimerising Fc or GST)
chain (part 1 of 2): QVQLVESGGGLVQPGGSLRLSCAASGITASTSCMGWFRQAPGKGLEAVAATIYDGSTYYADSVKGRFTISRDNSKNTLYLQMNSLRAEDTAVYYCAAARYCMFWSHPSYWGQGTLVTVSS
chain (part 2 of 2): HHHHHH
B14: Tab1 (control antibody 1), mepolizumab (antibody, INN chains, looked up, V domains shown)
VH: QVTLRESGPALVKPTQTLTLTCTVSGFSLTSYSVHWVRQPPGKGLEWLGVIWASGGTDYNSALMSRLSISKDTSRNQVVLTMTNMDPVDTATYYCARDPPSSLLRLDYWGRGTPVTVSS
VL: DIVMTQSPDSLAVSLGERATINCKSSQSLLNSGNQKNYLAWYQQKPGQPPKLLIYGASTRESGVPDRFSGSGSGTDFTLTISSLQAEDVAVYYCQNVHSFPFTFGGGTKLEIK
B15: Fc fusion protein of anti-IL-5 single-domain antibody 3G12 (Fc fusion, not shown: a dimerising Fc or GST)
chain (part 1 of 2): QVQLVESGGGSVQAGGSLRLSCVASGLTLNDVSMAWFRQAPGKEREEVAGIDIDGLISYADSVKGRFTISKDNAQNTLYLQMNSLKPEDTAMYSCAAVRLYFSSSRNQYKYEGQGTQVTVSS
chain (part 2 of 2): HHHHHH
B16: Fc fusion protein of anti-IL-5 single-domain antibody 4C3 (Fc fusion, not shown: a dimerising Fc or GST)
chain (part 1 of 2): B15 chain (part 1 of 2) with S62P, L78M
chain (part 2 of 2): HHHHHH

What was measured:
[1] = biological target: human recombinant IL-5 protein with a histidine tag at carboxyl terminal (human) (UniProt P05113); assay: cell-based or functional assay
[2] = biological target: IL-5 protein (Novoprotein, Cat #CS 33) (human) (UniProt P05113); assay: indirect ELISA on IL-5 protein, antibody titrated, OD450
[3] = biological target: human recombinant IL-5 protein with a histidine tag at carboxyl terminal (human) (UniProt P05113); assay: BLI (Octet 96), binding molecule on sensor, IL-5 antigen 200 nM and 2-fold dilutions

EC50 for neutralizing IL-5-induced TF-1 cell proliferation [1]	further results	Binder
0.176		B1
0.15		B2
0.274		B3
0.189		B4
0.188		B5
0.175		B6
0.237		B7
0.219		B8
0.1		B9
0.196		B10
0.427		B11
0.0664	EC50 (read off the curve) [2]: 0.8 nM	B12
2.82		B13
0.234	Kd [3]: 0.99 nM; koff [3]: 8.22e-05 s⁻¹; kon [3]: 82600 M⁻¹ s⁻¹	B14
2.09		B15
4.4		B16

Reference: patent US20230235039A1
